Results as given in the domain aggregation screens of Martell et al. (2025).

Test: soluble fraction after stress (log2 fold change); higher = more stays soluble; pooled small domains, quantitative proteomics
Settings: stress: pH 4
In short: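 Values are log2 fold changes, and higher ones mean more of the domain stayed soluble. Each fold change reflects the soluble amount of a domain after acid stress and is taken as a measure of aggregation propensity. The stress was pH 4, applied to pooled custom libraries of small protein domains analysed by high-throughput quantitative proteomics.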

| Sequence | soluble fraction (log2) |
| --- | --- |
| HMSELTKEIGKRIHDFRKSRGLNQEELARLIYKSKATLSKYEKGEIAIDLDTLKQLALALHVRMEQLLPPT | ≥ 0.43 |
| HMSENDTILAKFVSVMGNKNLELVIFPDIAYLKGQVSNPEDKTKAETVAQSLLGGKPLVSLIEFE | -0.917 |
| HMSENIQLQKEQLYQLIAQLPEQRQKIFRLHKIDNYSYQEISDFTGLSRKTIANHIYLAHQFILKKVKK | -0.28 |
| HMSENKIMEIVQDLAREKSVILISHRLANVTAADKILYMEQGKIAESGTHEQLMAQNKAYAALFNKQQEL | -0.0418 |
| HMSENLESEFFGIVVITQTLLQKELRDKPMTVELIRKTVEDVMSKHYSDSSVDKAKVEEELIRRFSTW | -1.75 |
| HMSENMSQDLAQWYRLQQALHPNLDAPELWATDLTSQQRTVRDQLIQQWAQEKRDSLWSEISGD | -0.618 |
| HMSEPFDMAVPLTSGGRRLDQVLAELLPQHSRNRLQGWIRDGLLTLDGVTVTEPKRKLAGGEQLALLLP | -0.238 |
| HMSEPTLESLRAEGAHHYDPARFHYLEVLARRMPGQHAAVQQVLASRLREAVAAYAGRRSLI | -0.252 |
| HMSEQSEALRTGLDQLPINQRTALTLFHLHELNQSEVAKIMNISVGAVESLLFRGRQKMKQLLTSD | -0.157 |
| HMSERIITFGEATREAMLEEMRADERVFVYGEDIAKQGGIFGQFAGMKDEFPERVLDTPISETALVGAG | -0.679 |
| HMSERVVVPDLTGKDLVAAQSELREISLAGREEGPGDKVRRQFPVAGVKVPKDTVVILYTED | 0.117 |
| HMSESAGKALDILFYLARVEDEVSLARLSKETGMNKATALRYLAVLESWGVVEKRPSGWSLGLSLFELGSK | -1.03 |
| HMSESGTFRAEAADAGRRLDVALAERLRLSRAAAQRLIAAGLVLVEGSPARKRQILHAGETVAWRAAPP | -0.0686 |
| HMSESLLTAAGFKTIAATTPEQKRHLEWLHPDQVTAVQLTGQHYYVYPDVAKSQLFVGTPKEYQAYLALRT | 0.00516 |
| HMSESLRDLVLSLIPEDGSTIGNRALITRLREDLPDLTDEDYHEVRDQLIAEGVLAKGRGQGGSVARANG | 0.0415 |
| HMSETIVFGQQKAINTLSSEAGLSSAELNNYLKKRYQRPLFQLTVSEGADLIQGFQDGTLTKASITQYVSQ | 0.22 |
| HMSETQDQTTIEIEDMITVGTLAERLSIPVSTLIGELMKNGVMATVNEKIDFDTAQIIVGELKLPIELSKK | -0.269 |
| HMSEYEYALHEFGITKKQSQRIFDRLSIADLEERINAIQTTLKQRSDIDNPAAYAWTVLNAE | -0.767 |
| HMSEYLDIHMAMEKLNRKEQLFVHLRFYEGLTQSEIAQRLFTSQVQISRLEKSVLEKMRQILSK | -0.91 |
| HMSEYTRGELVSSLEAGEVAAVSIRPNRETPTGEAQIVLSDGQHRVLYVTDVREIEELVSSYGLNPQVEK | -0.233 |
| HMSFDNIKVGYISETAGYVKGISLADANEYAKLNPDTEFIFIDGDEKVRFLTINEVNGLTPKNLLRSDP | -1.6 |
| HMSFGFFELKSSDTDKLFAYLNNNEHFGNIKEENGLVTAFLTSELDAQTLNKLLFDNGIIASHLVKRK | -1.82 |
| HMSFMPDPSIHDAITYTVRSGDYLGKISTTFGVKVSDLQKWNSIKSNIIYPGQKLTVWVSSNKRESLQ | 0.194 |

| Sequence | soluble fraction (log2) |
| --- | --- |
| HMSFPLKRGSKGNRVTQLQNALVKKFGASILPKYGVDGMFGKEVEAALVRAKLPTSINESTYNSFV | -0.0036 |
| HMSFVAYEEEKAIGMVRLIGDGGMSFYIKDFAVLPGHQGKGVGQMLLMELQQYLLEHKPADWAVSLE | -1.47 |
| HMSGAKLLAPVTGTLLRYTVAEGTKVSEGQTVIMLESMKMELEINAHKAGVIHFTAAAGAQVAEGDSLAEI | -0.419 |
| HMSGDKKLQMNLILEFAQQNESFRTKDIEELLQIRSSRARKLISDLVTEGRLEALGENRNRRYQLI | -0.329 |
| HMSGDYRALYSSLPPERASSVVDALNVAGIPYRIQDSTGAIMVPAEQIYDARIRLAGQGLGK | 0.0695 |
| HMSGEPKNERQIEVPDVTKKSIREANNILTSEGLRLRIEGTGLAVSQKPAAGTMVEPDTIITVTFQAP | -0.0704 |
| HMSGHEVMVQRITAIIAELYQYGFVSRKKMMDEFNISERTLYRDLNRLGDRIVPDGDGIYRLAPAYA | -0.954 |
| HMSGHIPGIKIKGVIFFDKGSSSNHIIATTENNSNLKLRVGETVQGAVLKSIHPNHVIFFHHNQLIEVGIG | 0.0374 |
| HMSGKGEFDQLLRSGEYVQAFQRANANGNVTLRRQQLLNLARHQAASGVGSGAIESLSTIQRI | 0.104 |
| HMSGKMTVPNVVGKTETEAKSALSAKGFTNVRTETVDSTEAAGTVVKQSLDADSVQDPKTEIVLSVSNG | ≥ 0.43 |
| HMSGKWKIRILWYIAEYEVQRFGELRRRLGDITQSTLTEQLRELEQDGFVSRYVYQEVPSKVEYSLTE | -0.0562 |
| HMSGKWSILILHALEQGPKRFNVLHRELSGITQATLTKQLRQLEEDGIILRKAYPQIPPKVEYQLTEIG | 0.112 |
| HMSGNPLDTYYSKWSAEIKKGSPNAVISKEGDKYYVSIPGENRMAIIYENPHLIRMVNATRNIHVE | 0.0911 |
| HMSGPSDRDLFDEALALLSGSGREPDYHEARIRLGTLVEQFPESKWAEGAKALLSMLDRVSALQV | -0.673 |
| HMSGPVITEERNIANALISGLANMKETPTREQVERKAQQIAELFGYTGDLRNIITEAMISVDT | -0.137 |
| HMSGRPPTYTAEERSAVIAAALSRPADLGLPFASWTLDRLVAYLGEKGIGMKRSRMSEVLLAEGLKW | -0.0116 |
| HMSGSGYAYVDKYGYSHVVKDYDTAKNYASDGNVYNYSGSHKGGYAYDADNYRVPLDLPGSKPYG | -0.183 |
| HMSGSIIQQAENLERQFGDTREAILGTLSDPKMSEEILETLMERYNKQHGTNWDKNTWAEEWAKANK | -0.355 |
| HMSGSILVQVSATDLNIRKGPGTNYGTTGKYTGKGTFTIVETRSGQGSNAGWGKLKSGAGWISLDYAKR | -0.0233 |
| HMSGTESMIEGRGEARTAIDGEGKVFFQGEYWTAQSDQFIPQGAKVRIKKVEGLNLIVEEIK | -0.796 |
| HMSGTYIVTVQANTLDIYKSMTSNDTIGKANKGDVFQILEDMGGGYAKVSYNDVEGYISIKDGDTSIDEM | -1.29 |
| HMSGVIVPDIYNKTLAEAVASLEGEGFSTEKKEGYSDTVPKGNVMSQKPEAGTSAERGSTVTITISQGPQ | -0.0347 |
| HMSGWIATGTATSTGNDVRVRSTPDATVNNNILLTLNKGNRFEIDGQTQNGFYHIKVNDTIGWISGLYVKE | 0.0378 |

| Sequence | soluble fraction (log2) |
| --- | --- |
| HMSGYFSDKKLNELFEQYLIMREKKGKPVVGYQLKILIDRLNQVAANTKEKIEVVSNAIAGDWNTFYPIKR | 0.0685 |
| HMSHDTLVYRLAQMLVKLNQGEKLDPQQLAEEFGVNLRTIQRDLNVRFAYLQLEKTDGRYHLDPTFL | -0.241 |
| HMSHLTKKQEEVLLFIRDYYEEEGRSPSYSDIQHHFGLKSKSSVQDYIGYLKKAGFLQKSVGSRAIELV | ≥ 0.43 |
| HMSHQIIIVAVELDPSTERIVYYLSKNGISINVLFFKVFQHGDEQFLSRVWLIDPSETQTNAALA | -0.424 |
| HMSIESMVGRFGVVTKDVVANEMAGKVKVGREEFRATADIAVSSGTKVKVTHAEGITLTVVPE | 0.0258 |
| HMSIGKEATPDDIVPNIRVYHATFGYGNVIKTDGVSHDKKAVVNFDSVGEKTLLLKFAKLILPY | -0.754 |
| HMSIGLEGFVGKLGISTSDLRPSGWGEFDAKKLFVVTEGEFVDRKEKIEILSVDGNRILVRKIS | -0.471 |
| HMSILPGVYRHYKGNHYQVFYLAKHSETLEDMVVYQALYGERGIWVRPASMWNETVDDQGKQVKRFTYI | -1.22 |
| HMSILYNAVKGTLVSSGALTADSWYKISSFGTASALPALKVGSIFKTPEGAGDAITLASGDSVYPLTLT | 0.021 |
| HMSINQTIEGKKQGYWIIYGNMRNLQEYLSNEVIEEGQFKNSRKEGVWRKYFPGGQMKSEITYINGRP | -0.93 |
| HMSINTIIAKNLNRLRNERNLSLGQLAELSGVSKVMLSQIEKGDSNPTVNTIWKIASGLNVPYTAILDQP | 0.22 |
| HMSIPVLKDGTYESWGNEKVYKVGDRVMVGSNGYVAKWWNQDETPEKAIINPNDSPWRPMTESEIMEVLK | -0.113 |
| HMSISEADAKKIALEKVPGATDSNLRIKTDYDDGIMKYEVKIVYNEMKYEFDIDAATGTILEWESESVY | 0.277 |
| HMSISSSEAARSAVASSGGTVLGVSKASHGGYKAWAVRIQRADGSVVTGYVDRASGTVYDWVVNQAA | 0.379 |
| HMSKEDDSLVVTFRRMLLEEVDLHELSRIDANQRRARLERVIAHLVSREGVILSASERNQLVRRVVDEAV | -0.801 |
| HMSKEEAIQAMKEGKKVTHRFFSSDEWMTIENGFLLLEDGVRISLEDFFNFRSDSLWDNGYELYNPH | -0.768 |
| HMSKFSDTLVYLRKRAGFSQQELADKMEVSRSLVGMYESGQRMPSYEMLEALADIFNVNIDFLTGH | -0.586 |
| HMSKIRSEINKFSSDADKPILEWLFERYHWASQWRFVARFSEQRYGVLSYEINRVWEPTIEGRALYDQL | -1.45 |
| HMSKKMLASIFDTISGIGKKRLKKIWDNYTSLNELKDDSLENIYAKTQIPINLITKIKEKLE | ≥ 0.43 |
| HMSKKMTNEEILNFLKKVLIKHGKISGFIIDEDDNGPSSSVVASRFGGLLNAYKLINYTPER | ≥ 0.43 |
| HMSKMTLGENLRLLRREKGLSQEQVAQTLFVARQTISKWENGQAEPGVESLKALAKLYGVSLDRLVGA | -0.324 |
| HMSKPLEVFKLTSEPFGFSFNTALGRSYTVEATGDLGVWKAVELFQGSGGEIRFTAKPTSSGGAQFFRVFV | -0.225 |
| HMSKPVYILINKPKGFLASSTDKKVKKSVNDLINISNLNKIYPFDNMGRTSSGLLLLSNDLYFKKHFKDKI | 0.209 |
